Measured values taken from article PMC9158119 (2022).

Target: SARS-CoV-2 original strain spike receptor-binding domain (S-RBD) (SARS-CoV-2, UniProt P0DTC2 320-537)
Assay: SPR

B1: Nb-007 (VHH)
VHH: QLQLVESGGGLVQAGGSMRLSCAASISFSSFPMGWHRQAPGKQRELVAKTGIGGTAYDDSVKGRFTISRDNTKNTVYLQMNSLKVEDTAVYYCWGWRMNDYWGQGTQVTVSS
For B1, the koff was 0.00103 s⁻¹.
